Five molecules from paper PMC7793260, “MreC and MreD balance the interaction between the elongasome proteins PBP2 and RodA” (PLoS Genetics, 2020) can be followed below.

To fix the notation:
B5: PBP2 (wild type), fused to mKO or to mCherry (enzyme, E. coli, UniProt P0AD65 1-633, looked up)
chain: MKLQNSFRDYTAESALFVRRALVAFLGILLLTGVLIANLYNLQIVRFTDYQTRSNENRIKLVPIAPSRGIIYDRNGIPLALNRTIYQIEMMPEKVDNVQQTLDALRSVVDLTDDDIAAFRKERARSHRFTSIPVKTNLTEVQVARFAVNQYRFPGVEVKGYKRRYYPYGSALTHVIGYVSKINDKDVERLNNDGKLANYAATHDIGKLGIERYYEDVLHGQTGYEEVEVNNRGRVIRQLKEVPPQAGHDIYLTLDLKLQQYIETLLAGSRAAVVVTDPRTGGVLALVSTPSYDPNLFVDGISSKDYSALLNDPNTPLVNRATQGVYPPASTVKPYVAVSALSAGVITRNTTLFDPGWWQLPGSEKRYRDWKKWGHGRLNVTRSLEESADTFFYQVAYDMGIDRLSEWMGKFGYGHYTGIDLAEERSGNMPTREWKQKRFKKPWYQGDTIPVGIGQGYWTATPIQMSKALMILINDGIVKVPHLLMSTAEDGKQVPWVQPHEPPVGDIHSGYWELAKDGMYGVANRPNGTAHKYFASAPYKIAAKSGTAQVFGLKANETYNAHKIAERLRDHKLMTAFAPYNNPQVAVAMILENGGAGPAVGTLMRQILDHIMLGDNNTDLPAENPAVAAAEDH
notes: PBP2, peptidoglycan transpeptidase of the E. coli elongasome, wild type; mKO-PBP2 in all others; also called mKO-PBP2^WT; mKO-PBP2; source: E. coli LMC500, expressed from plasmid (15 uM IPTG), in fixed cells; not shown: mKO (donor construct, pWA004) or mCherry (acceptor construct), N-terminal, kept

Assay in all cases: FRET or BRET; two-plasmid spectral FRET in E. coli LMC500 cells; mCherry fusion as acceptor, mKO fusion as donor; Gb4 medium, steady state at 28 C, 15 uM IPTG for two mass doublings, FAGA-fixed; acceptor FRET efficiency (EfA) by spectral unmixing
Data set [1] concerns the target T1, RodA (wild type), fused to mCherry or to mKO (E. coli, UniProt P0ABG7 1-370).
T1 construct: RodA, peptidoglycan glycosyltransferase of the E. coli elongasome; wild-type rodA gene; mCh-RodA in all others; also called mCh-RodA; mKO-RodA; source: E. coli LMC500, expressed from plasmid (15 uM IPTG), in fixed cells; not shown: mCherry (acceptor construct, pSAV047-RodA) or mKO (donor construct, pXL56), N-terminal, kept
T1 sequence (looked up): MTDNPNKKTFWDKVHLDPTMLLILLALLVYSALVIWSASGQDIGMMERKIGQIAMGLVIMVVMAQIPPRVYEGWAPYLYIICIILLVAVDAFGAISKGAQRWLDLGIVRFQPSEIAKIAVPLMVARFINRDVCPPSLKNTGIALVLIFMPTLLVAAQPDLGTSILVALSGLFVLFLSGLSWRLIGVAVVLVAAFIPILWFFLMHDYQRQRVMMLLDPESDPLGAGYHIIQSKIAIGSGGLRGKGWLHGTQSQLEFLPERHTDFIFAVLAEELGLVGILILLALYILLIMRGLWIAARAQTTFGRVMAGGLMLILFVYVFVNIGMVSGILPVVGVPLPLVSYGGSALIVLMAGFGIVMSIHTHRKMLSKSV
To be noted: partners not purified.

The target of data set [2] is B5. To be noted: partners not purified.
In the next data set the target is T2, mKO-PBP2^L61R (E. coli, UniProt P0AD65 1-633, L61R).
T2 construct: PBP2 of E. coli with L61R (hyperactive variant); made from pWA004 by mutagenesis PCR; also called hyperactive PBP2^L61R; source: E. coli LMC500, expressed from plasmid (15 uM IPTG), in fixed cells; not shown: mKO, N-terminal, kept
T2 sequence (looked up): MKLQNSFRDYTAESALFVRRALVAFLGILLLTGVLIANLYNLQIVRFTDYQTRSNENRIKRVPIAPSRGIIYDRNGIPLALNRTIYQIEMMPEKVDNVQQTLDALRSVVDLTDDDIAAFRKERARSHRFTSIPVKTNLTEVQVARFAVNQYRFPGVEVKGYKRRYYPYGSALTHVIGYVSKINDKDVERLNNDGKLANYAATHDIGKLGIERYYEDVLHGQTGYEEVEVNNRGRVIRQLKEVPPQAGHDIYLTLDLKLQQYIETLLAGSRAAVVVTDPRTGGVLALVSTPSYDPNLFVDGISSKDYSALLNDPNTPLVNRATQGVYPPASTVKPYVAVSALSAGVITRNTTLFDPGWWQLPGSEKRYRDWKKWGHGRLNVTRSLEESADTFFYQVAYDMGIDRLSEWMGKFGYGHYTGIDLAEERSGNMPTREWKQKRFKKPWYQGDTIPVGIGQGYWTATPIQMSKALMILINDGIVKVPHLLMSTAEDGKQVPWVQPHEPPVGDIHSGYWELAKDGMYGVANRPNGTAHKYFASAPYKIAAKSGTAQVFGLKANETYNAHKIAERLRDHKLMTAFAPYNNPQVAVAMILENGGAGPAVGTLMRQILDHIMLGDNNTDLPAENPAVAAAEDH
To be noted: partners not purified.

Data set [3] deals with the molecule itself.

B1: mCh-MreB^SW (natural protein, E. coli, UniProt P0A9X4 1-347, looked up)
chain: MLKKFRGMFSNDLSIDLGTANTLIYVKGQGIVLNEPSVVAIRQDRAGSPKSVAAVGHDAKQMLGRTPGNIAAIRPMKDGVIADFFVTEKMLQHFIKQVHSNSFMRPSPRVLVCVPVGATQVERRAIRESAQGAGAREVFLIEEPMAAAIGAGLPVSEATGSMVVDIGGGTTEVAVISLNGVVYSSSVRIGGDRFDEAIINYVRRNYGSLIGEATAERIKHEIGSAYPGDEVREIEVRGRNLAEGVPRGFTLNSNEILEALQEPLTGIVSAVMVALEQCPPELASDISERGMVLTGGGALLRNLDRLLMEETGIPVVVAEDPLTCVARGGGKALEMIDMHGGDLFSEE
notes: MreB of E. coli with mCherry inserted inside the chain (sandwich fusion); also called sandwich fusion of MreB-mCherry-MreB; source: E. coli LMC500, expressed from plasmid (15 uM IPTG), in fixed cells
Consider B1, for which the “EfA (acceptor FRET efficiency)” value in data set [1] stood at 7.2%.

B2: mCh-RodA^Q207R (enzyme, E. coli, UniProt P0ABG7 1-370, looked up)
chain: MTDNPNKKTFWDKVHLDPTMLLILLALLVYSALVIWSASGQDIGMMERKIGQIAMGLVIMVVMAQIPPRVYEGWAPYLYIICIILLVAVDAFGAISKGAQRWLDLGIVRFQPSEIAKIAVPLMVARFINRDVCPPSLKNTGIALVLIFMPTLLVAAQPDLGTSILVALSGLFVLFLSGLSWRLIGVAVVLVAAFIPILWFFLMHDYRRQRVMMLLDPESDPLGAGYHIIQSKIAIGSGGLRGKGWLHGTQSQLEFLPERHTDFIFAVLAEELGLVGILILLALYILLIMRGLWIAARAQTTFGRVMAGGLMLILFVYVFVNIGMVSGILPVVGVPLPLVSYGGSALIVLMAGFGIVMSIHTHRKMLSKSV
Turning to B2, the “EfA (acceptor FRET efficiency)” value in data set [2] was 12.7%.

B3: mCh-RodA^R109A (enzyme, E. coli, UniProt P0ABG7 1-370, looked up)
chain: MTDNPNKKTFWDKVHLDPTMLLILLALLVYSALVIWSASGQDIGMMERKIGQIAMGLVIMVVMAQIPPRVYEGWAPYLYIICIILLVAVDAFGAISKGAQRWLDLGIVAFQPSEIAKIAVPLMVARFINRDVCPPSLKNTGIALVLIFMPTLLVAAQPDLGTSILVALSGLFVLFLSGLSWRLIGVAVVLVAAFIPILWFFLMHDYQRQRVMMLLDPESDPLGAGYHIIQSKIAIGSGGLRGKGWLHGTQSQLEFLPERHTDFIFAVLAEELGLVGILILLALYILLIMRGLWIAARAQTTFGRVMAGGLMLILFVYVFVNIGMVSGILPVVGVPLPLVSYGGSALIVLMAGFGIVMSIHTHRKMLSKSV
Regarding B3, the “EfA (acceptor FRET efficiency)” value in data set [2] turned out to be 12.5%.

B4: mCh-MreC (natural protein, E. coli, UniProt P16926 1-367, looked up)
chain: MKPIFSRGPSLQIRLILAVLVALGIIIADSRLGTFSQIRTYMDTAVSPFYFVSNAPRELLDGVSQTLASRDQLELENRALRQELLLKNSELLMLGQYKQENARLRELLGSPLRQDEQKMVTQVISTVNDPYSDQVVIDKGSVNGVYEGQPVISDKGVVGQVVAVAKLTSRVLLICDATHALPIQVLRNDIRVIAAGNGCTDDLQLEHLPANTDIRVGDVLVTSGLGGRFPEGYPVAVVSSVKLDTQRAYTVIQARPTAGLQRLRYLLLLWGADRNGANPMTPEEVHRVANERLMQMMPQVLPSPDAMGPKLPEPATGIAQPTPQQPATGNAATAPAAPTQPAANRSPQRATPPQSGAQPPARAPGGQ
Turning to B4, the “EfA (acceptor FRET efficiency)” value with mKO-PBP2^L61R is 5.3%; in data set [2], 5.1%. With B5, the “EfA (acceptor FRET efficiency)” value in data set [3] came out at 9.2%.
